We go through 15 sequences from the DeepSol protein solubility set.

The nature of this series: soluble on expression in E. coli; label from the status in PepcDB or PDB records.
On to “MIKGMKTRGERLKARRLELKLTLKQVAEAVGISLPGVQNLERGDVMPSLEIGLSLAKCLRKPVQWILYGTESDPDRVPVIGTTETGPDRDWQPGEPANTERFLPFVSQRNTVYALTVGNQIQRNYQPGDVILVDSSLTLVPGEDVLVCDNNGEITIQRLARYDEQHYYLDSANSQRVIHDKSDLQFVHQVVGTIKSFMVEGR”, for which the “soluble on expression in E. coli” value is on record as “not soluble”.

With “MGSDKIHHHHHHMKDVMFYFEIHQPFRLRPTNLYDVKSEQNVFWDEKNEEIFRRVAERSYIPATRNLMEYGIKSSFSITGTAVEQALMYNTKVIDAIDDYVKSGLCEMLSETYYHSLASIWNYDEFKRQVDMHRDLMKRIFNVVPKVFRNTELIYDDRIAEMVKRMGFTSIITEGTDSIVKDHSPNYRYASPSGLNLYLRNYVMSDNISFRFSNTKWKDYPLTADKYAKWINESEGDMVNLFMDYETFGEHQTQETGIFDFMKYLPVYFRDYGIETITISEAEKRHRVKDVLSIPETISWADTRRDLSAWLENEMQIDTFDRIKKCREKAGRLWGYLQTSDIIYYMSIGLEQDFTVHEYFNPYKSPYLAFIYTNYALDKICGSSYGKNEI”, the “soluble on expression in E. coli” value was “not soluble”.

With “MSLGKKDKRWVLQRKNDHYYNLAKKRNYRSRATYKLFQLNEKFNLIKERNVVVDLGCAPGGWLQAARDIVGDKGFIVGIDLQTVKPLPYENVIAIKGDMTKEEILKQARDLLPEKPDVIICDASPNISGVWDVDHARSLELTTMALMTATKMLKKGGNFVVKVFQGDLFEKYVQLVSEYFDKAFTTKPRASRDESAEVYVIGKRFNGRKFDMNSKSPIVKLLDTNPKENEITSPSLRKDISKEDSGLMIKRIKEMRSKKEGHHHHHH”, the “soluble on expression in E. coli” value is on record as “soluble”.

Turning to “MSLDASQGGEQQSFSWDNATVYFAITDRFHDGNPSNNQSYGRPQEDAWGQNIGTFHGGDLQGLTDKLNEGYFTELGINAIWITAPYEQVHGWVGGGSDGDFAHYAYHGYYALDYTMIDQNMGTVEDMREFVHTAHEQGIRVVLDVVMNHPGYNTIKDMHEYGFGNPGVSEHWTPGQGQNWHDVHQQINYEDAGAWRHWWGPWIRAGIAGYESCGNSEITMCLAGLPDFRTELTHSVGLPPLLETKWNQERQGGYEDWIVPAANDLRRDLGVAPADYIVKWLSAWVEEFGIDGFRVDTAKHVELSRWQQLKDAANEALWKWREENPEAPGANWTDDFWMVGEVWGHGVGRSEYFDHGFDSVINFTFQGEHGNGPAYRLDTMESTFSRYANAINTDSTFNVLSYLSQHDTQLYPRERLIDGGTYLMLLPGGVQVFYGDETARPFGPTGSDPHQGTRSSMNWDSVNEEVLHHWQKMGQFRSNHLAVGAGEHRQIAASPYTFSRTYVEGDVDDRVVVVVGASGETTIDVSSVFSDGQQVRDFYTGNVTVVENGHVTFPAHRNGVILIERAGDEGHHHHHH”, the “soluble on expression in E. coli” value was “soluble”.

Turning to “MSLSHLLELYINFKGEAKEAIAFYEDVFDTKCQNLMTFGEAPEDPEHPINDEIKDLVMNASIIIEGTYVMISDVPDMFGFEVTEGNNLSLVVSTDDDEKIDRLFKRLSEGGTVTMPFLKLFGPKSMVPEGGSHHHHHH”, the “soluble on expression in E. coli” value is listed as “soluble”.

With “MAWAPPMAKRRSAPATQAAARTPGWTLGGLATILKGFSGQVQFVPEDYPVWLNRVLAEAQTGRGTVGVLGGLHGDFPPLVSRGLLEPLDGLYARLQDRGFPQAFVELGRMGTPNQQYLPWMQATYVMVARKEALKYLPPGADLNALTYEDLKNWAKAIQEATGQRRLGFPAGPGGLIHRFLQGYLYPSYTGSQVRRFKSPEAEAMWRDFRELWRYVNPRSTAYEFMQEPLLSGEVWIAWDHTARLKDALVQRPQDFVAFPAPAGPKGRGFMPVVAGLAIPKTAPDKRAAEALVDYLTRPEVQLLTLKEVGFFPVVRARYGEDLPEGIRLLAEAVSAQSSAKDALPSLLPVGLGDKGGEFNKVYRDAFTRIVLRGEEIRRALDLEAQNLARILRETGAPCWPPDAPSTGACPVE”, the “soluble on expression in E. coli” value is “soluble”.

“MDVASALEGNWEFRVDHKNIKIFSSKIRGSQVLGFKGEAVFEASLRKLISLFHDFGNYGKWVHQLSEMEVLHKSDELDYVVRQVLNTPWPIPKREMIVRTALHASEEGALALTMTGIPDYVPLKPDFHRVREARGGWILMPVDGGKVHVTFVMHLDPGSDIPPALSNAALFEVPFYSLLKMRDLAQNPSYKPAWPSVVDNHVTIIEDVPDKHLEHHHHHH”: the “soluble on expression in E. coli” value is recorded as “soluble”.

Consider “LSPPRGLVAVRTPRGVLLHWDPPELVPKRLDGYVLEGRQGSQGWEVLDPAVAGTETELLVPGLIKDVLYEFRLVAFAGSFVSDPSNTANVSTSGL”, for which the “soluble on expression in E. coli” value is recorded as “soluble”.

For the sequence “SRQETGGNLMSEPLLIARTPDTELFLLPGMANRHGLITGATGTGKTVTLQKLAESLSEIGVPVFMADVKGDLTGIAQAGTASEKLLTRLKNIGVNDWQPHANPVVVWDIFGEKGHTVRATVSDLGPLLLARLLNLNDVQSGVLNIIFRIADDQGLLLLDFKDLRAITQYIGDNAKSFQNQYGNISSASVGAIQRGLLSLEQQGAAHFFGEPMLDIKDWMRTDANGKGVINILSAEKLYQMPKLYAASLLWMLSELYEQLPEAGDLEKPKLVFFFDEAHLLFNDAPQVLLDKIEQVIRLIRSKGVGVWFVSQNPSDIPDNVFGQLGNRVQHALRAFTPKDQKAVKTAAQTMRANPAFDTEKAIQELGTGEALISFLDAKGSPSVVERAMVIAPCSRMGPVTEDERNGLINHSPVYGKYEDEVDRESAYEMLQKGFQASTEQQNNPPVKGKEVAVDDGILGGLKDILFGTTGPRGGKKDGVVQTMAKSAARQVTNQIVRGMLGSLLGGRKR”, the “soluble on expression in E. coli” value was “not soluble”.

As for “MGSDKIHHHHHHREEAPNAEADILSCRLPGVVMTTSPIITNNSINIFVGPGTDISSLAPEFTLTPGATIDPPSGTARDFHSPQQYTVTAADGFWKKKYTVSVIDTELATIYNFEDTLGGQKYYIFVEREGEKVVMEWASGNAGYAMTGVPKTADDYPTFQFANGKTGKCLSLVTRSTGFFGSIMGMPIAAGNLFIGSFDVGNAMSNPLKATKFGLPFRHIPTYLAGYYKYKAGDQFTEGGKPVSGKRDICDIYAIMYETSESVPTLDGTNAFTSPNLVSIARIDDAKETDEWTYFKLPFHMLSGKYIDKEKLTAGKYNVAIVFTSSLEGDHFNGAIGSTLLIDEVELIYRSED”, the “soluble on expression in E. coli” value is recorded as “not soluble”.

“TWCPGCGNFAILKAFERASRRVIEEGFDIAVSSGIGCHGKISDYLSLPGFHVIHGRVPPFLTGLKLANPNLVVVGFSGDGDGLNEGVEHLVHAARRNTDITIILHNNGVFGLTTGQVTATSPRGRKSRSTPRGNPEYPLNPCHLMLVSGATFVARVFAGEQERLSEVFYNAMKHKGFSFVEVMQPCVSFNNFWEMRK”: the “soluble on expression in E. coli” value is given as “not soluble”.

On to “MGSDKIHHHHHHEEDNTELSEEDRVAEMFREAGFKVEKLSSKPVNPPMTEKEASLFLAAYKNRERSGSIQIPSENIELKPDGHLVVKVKCNSEKKNFSRTRTVYKEEFDFTHWATYTVRDIEIECWQDIAGYWKSDNVNCTFTTRDPEYICGFPDINPNTGYSKGSLYFSINITVSRYSGWQIYSVDENYDYTLMLTWLPVAQEWNASLSWHETFW”, for which the “soluble on expression in E. coli” value is listed as “not soluble”.

With “METKWRNGDIVQPVLNPEPNTVSYSQSSLIHLVGPSDCTLHGFVHGGVTMKLMDEVAGIVAARHCKTNIVTASVDAINFHDKIRKGCVITISGRMTFTSNKSMEIEVLVDADPVVDNSQKRYRAASAFFTYVSLNQEGKPMPVPQLVPETEDEKKRFEEGKGRYLQMKAKRQGHTEPQP”, the “soluble on expression in E. coli” value is “soluble”.

“MGSDKIHHHHHHMSNQFMFADETSQQTTKLPTEYWKILIVDDEPEVHAVTKLALNDFNFLGRGLKFYSAFSGEEAKRLIDEHPDAAILLLDVVMETDDAGLQVARYIREEADNHFTRIILRTGQPGQAPERTVIVNYDINDYKSKTELTAQKLFTAVMSSLRSYRDIMSIDQSRHGLEKIIAASANLYALQPMNSFVDGLVQQLSWVIGGAKQTLYATSNEDGSSYKVLAAHGEDSGVCVGQTLRSVIPSKALAELEHVIANHGSYYGDDFVLLYCRSHCRSHGSVLFIGGLSRALTADDHHVLQLFSENVQLAQDNVVCLEDSDQFLARLADQLMLHHASHFNGILEQNSEVRLAYAVAQKVAAEDAETTALAWSLFAQARPLLNCASDAAAAVETTCQQRVARSLRALGHGEHEATQNAHRALIERLERWDGLGLPEGKQGSDIAISTQVLLLTEQLLDWWESGISDSDIAVRLKDERGRYYSPKFLDVVIKSLPELRTI”: the “soluble on expression in E. coli” value is listed as “not soluble”.

Turning to “GKTMKMRKFTIADASLERSPGQEADISVGNLVDERHGGPITIGYGRYAPGQSLTETMAVDDVMIVLEGRLSVSTDGETVTAGPGEIVYMPKGETVTIRSHEEGALTAYVTYPHWRPAHA”, the “soluble on expression in E. coli” value is on record as “soluble”.
